Reference: US20180282719A1 (published 2018)
Numbering of substitutions follows the chain as printed. Each block holds one binder with its values, some of them ahead of it.

How the values were obtained:
[1] = target: T1, recombinant soluble human IL-6 receptor (SR344) (human, UniProt P08887 20-344, biotinylated (sites not given) where immobilized via streptavidin or used in phage ELISA); assay: SPR Biacore T100, antibody captured by anti-IgG gamma chain F(ab)2, SR344 analyte, pH 7.4, 37 C
T1 construct: also called soluble IL-6 receptor; membrane-type IL-6 receptor (when biotinylated and immobilized on the chip)
T1 sequence (looked up): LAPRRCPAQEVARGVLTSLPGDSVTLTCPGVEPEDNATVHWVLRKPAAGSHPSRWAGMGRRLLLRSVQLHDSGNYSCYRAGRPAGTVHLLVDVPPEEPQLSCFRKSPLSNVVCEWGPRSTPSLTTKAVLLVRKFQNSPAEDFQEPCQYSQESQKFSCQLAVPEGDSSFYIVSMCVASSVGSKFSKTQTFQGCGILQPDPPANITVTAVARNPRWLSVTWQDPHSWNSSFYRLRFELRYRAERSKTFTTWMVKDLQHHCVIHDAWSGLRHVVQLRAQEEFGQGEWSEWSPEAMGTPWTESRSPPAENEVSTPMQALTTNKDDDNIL
Experimental: Kinetic analyses of antigen-antibody reactions at pH 7.4 were carried out on the four types of antibodies, i.e., the humanized PM1 antibody (wild type: WT), and […], H3pI/L73-IgG1, Fv2-IgG1, and Fv4-IgG1 constructed in Examples 2 and 10, by using a Biacore T100™ surface plasmon resonance system (GE Healthcare) (buffer: 10 mM MES (pH 7.4), 150 mM NaCl, 0.05% TWEEN® 20 (polyoxyethelene sorbitan monolaurate)). Each antibody was bound on a sensor chip on which an anti-IgG γ chain specific F(ab)₂ (Pierce) was immobilized by amine coupling, and then, SR344 adjusted to a concentration of 9.8 to 40 nM was injected thereto as an analyte. The association to and dissociation from SR344 were observed on a real-time basis for the pH-dependent-binding clones. All the measurements were carried out at 37° C. Association rate constants kₐ (1/Ms) and dissociation rate constants kd (1/s) were calculated using Biacore T100™ Evaluation Software (GE Healthcare), and dissociation constants KD (M) were calculated on the basis of those values (Table 7).
The association to and dissociation from SR344 were observed on a real-time basis using the same method as Example 10 for the eleven types of antibodies, humanized PM1 antibody (wild type: WT) and H3pI/L73-IgG1, Fv1-M71, Fv1-M73, Fv2-IgG1, Fv3-M71, Fv3-M73, Fv4-IgG1, Fv4-IgG2, Fv4-M58, and Fv4-M73, constructed as described above. The association rate constants kₐ (1/Ms) and dissociation rate constants kd. (1/s) were calculated by analysis in the same manner, and the dissociation constants KD (M) were calculated on the basis of those values (Table 11).

[2] = target: T1, recombinant soluble human IL-6 receptor …; assay: SPR Biacore T100, biotinylated SR344 on streptavidin chip (model of membrane-type IL-6 receptor), antibody as analyte, bound at pH 7.4, dissociation at pH 7.4, 37 C
Experimental: (§1) Binding to the membrane-type IL-6 receptor was evaluated by evaluating binding to the IL-6 receptor immobilized on a sensor chip. SR344 was biotinylated in accordance with a method known among persons with ordinary skill in the art, and the biotinylated SR344 was immobilized on the sensor chip via streptavidin using the affinity between streptavidin and biotin. All the measurements were carried out at 37° C. The mobile phase buffer was 10 mM MES (pH 5.8), 150 mM NaCl and 0.05% TWEEN® 20 (polyoxyethelene sorbitan monolaurate).
(§2) The pH-dependently-binding clones were injected under the condition of pH 7.4 to allow them to bind to SR344, and then, the pH-dependent dissociation of each clone at the pH of the mobile phase, pH 5.8, was observed. The results are shown in FIG. 21 (results for Fv1-M71, Fv1-M73, Fv3-M71, and Fv3-M73 are shown in FIG. 21, while results for other clones are shown in FIGS. 17 and 19). Analyses were carried out in the same manner as in Example 10 and the pH dependencies of the dissociation rate constants of all of the eleven types of clones are shown in Table 12.

[3] = target: T1, recombinant soluble human IL-6 receptor …; assay: SPR Biacore T100, biotinylated SR344 on streptavidin chip (model of membrane-type IL-6 receptor), antibody as analyte, bound at pH 7.4, dissociation at pH 5.8, 37 C
Experimental: as §1, §2

[4] = target: T1, recombinant soluble human IL-6 receptor …; assay: SPR Biacore T100, biotinylated SR344 on streptavidin chip (model of membrane-type IL-6 receptor), antibody as analyte, 37 C
Experimental: as §1, §2

B3: Fv1-M73 (antibody)
heavy: QVQLQESGPGLVKPSETLSLTCAVSGYSISHDHAWSWVRQPPGEGLEWIGHISYSGITNYNPHLQDRVTISRDTSKNQFSLKLSSVTAADTAVYYCARFLARITAHDHWGEGTLVTVSSASTKGPSVFPLAPSSKSTSGGTAALGCLVKDYFPEPVTVSWNSGALTSGVHTFPAVLQSSGLYSLSSVVTVPSSNFGTQTYTCNVDHKPSNTKVDKTVERKSCVECPPCPAPPVAGPSVFLFPPKPKDTLMISRTPEVTCVVVDVSQEDPEVQFNWYVDGVEVHNAKTKPREEQFNSTFRVVSVLTVVHQDWLNGKEYKCKVSNKGLPAPIEKTISKTKGQPREPQVYTLPPSQEEMTKNQVSLTCLVKGFYPSDIAVEWESNGQPENNYKTTPPMLDSDGSFFLYSKLTVDKSRWQEGNVFSCSVMHEALHAHYTQKSLSLSP
light: DIQMTQSPSSLSASVGDSVTITCQASRDISSHLNWYQQKPGKAPELLIYYGSHLESGVPSRFSGSGSGTDFTFTISSLEAEDAATYYCGQGNRLPYTFGQGTKVEIERTVAAPSVFIFPPSDEQLKSGTASVVCLLNNFYPREAKVQWKVDNALQSGNSQESVTEQDSKDSTYSLSSTLTLSKADYEKHKVYACEVTHQGLSSPVTKSFNRGEC
Kd [1]: 0.91 nM
koff [1]: 0.00055 s⁻¹
kon [1]: 610000 M⁻¹ s⁻¹
koff [2]: 0.00037 s⁻¹
koff [3]: 0.0032 s⁻¹
kd (pH 5.8)/kd (pH 7.4) [4]: 8.8

B4: Fv1-M71 (antibody, human IgG2, kappa)
heavy: QVQLQESGPGLVKPSETLSLTCAVSGYSISHDHAWSWVRQPPGEGLEWIGHISYSGITNYNPHLQDRVTISRDTSKNQFSLKLSSVTAADTAVYYCARFLARITAHDHWGEGTLVTVSSASTKGPSVFPLAPCSRSTSESTAALGCLVKDYFPEPVTVSWNSGALTSGVHTFPAVLQSSGLYSLSSVVTVPSSNFGTQTYTCNVDHKPSNTKVDKTVERKCCVECPPCPAPPVAGPSVFLFPPKPKDTLMISRTPEVTCVVVDVSHEDPEVQFNWYVDGVEVHNAKTKPREEQFNSTFRVVSVLTVVHQDWLNGKEYKCKVSNKGLPAPIEKTISKTKGQPREPQVYTLPPSREEMTKNQVSLTCLVKGFYPSDIAVEWESNGQPENNYKTTPPMLDSDGSFFLYSKLTVDKSRWQQGNVFSCSVMHEALHAHYTQKSLSLSPGK
light: B3 light
Kd [1]: 0.97 nM
koff [1]: 0.00054 s⁻¹
kon [1]: 550000 M⁻¹ s⁻¹
koff [2]: 0.00061 s⁻¹
koff [3]: 0.0069 s⁻¹
kd (pH 5.8)/kd (pH 7.4) [4]: 11.3

The next lines start with the values.

Kd [1]: 1 nM
koff [1]: 0.00087 s⁻¹
kon [1]: 850000 M⁻¹ s⁻¹
koff [2]: 0.00049 s⁻¹
koff [3]: 0.0053 s⁻¹
kd (pH 5.8)/kd (pH 7.4) [4]: 10.9
B1: Fv3-M73 (antibody)
heavy: QVQLQESGPGLVKPSETLSLTCAVSGHSISHDHAWSWVRQPPGEGLEWIGFISYSGITNYNPTLQGRVTISRDNSKNTLYLQMNSLRAEDTAVYYCARSLARTTAMDYWGEGTLVTVSSASTKGPSVFPLAPSSKSTSGGTAALGCLVKDYFPEPVTVSWNSGALTSGVHTFPAVLQSSGLYSLSSVVTVPSSNFGTQTYTCNVDHKPSNTKVDKTVERKSCVECPPCPAPPVAGPSVFLFPPKPKDTLMISRTPEVTCVVVDVSQEDPEVQFNWYVDGVEVHNAKTKPREEQFNSTFRVVSVLTVVHQDWLNGKEYKCKVSNKGLPAPIEKTISKTKGQPREPQVYTLPPSQEEMTKNQVSLTCLVKGFYPSDIAVEWESNGQPENNYKTTPPMLDSDGSFFLYSKLTVDKSRWQEGNVFSCSVMHEALHAHYTQKSLSLSP
light: B3 light with E55L

Kd [1]: 1.1 nM
koff [1]: 0.00082 s⁻¹
kon [1]: 780000 M⁻¹ s⁻¹
koff [2]: 0.00091 s⁻¹
koff [3]: 0.0097 s⁻¹
kd (pH 5.8)/kd (pH 7.4) [4]: 10.7
B2: Fv3-M71 (antibody, human IgG2, kappa)
heavy: QVQLQESGPGLVKPSETLSLTCAVSGHSISHDHAWSWVRQPPGEGLEWIGFISYSGITNYNPTLQGRVTISRDNSKNTLYLQMNSLRAEDTAVYYCARSLARTTAMDYWGEGTLVTVSSASTKGPSVFPLAPCSRSTSESTAALGCLVKDYFPEPVTVSWNSGALTSGVHTFPAVLQSSGLYSLSSVVTVPSSNFGTQTYTCNVDHKPSNTKVDKTVERKCCVECPPCPAPPVAGPSVFLFPPKPKDTLMISRTPEVTCVVVDVSHEDPEVQFNWYVDGVEVHNAKTKPREEQFNSTFRVVSVLTVVHQDWLNGKEYKCKVSNKGLPAPIEKTISKTKGQPREPQVYTLPPSREEMTKNQVSLTCLVKGFYPSDIAVEWESNGQPENNYKTTPPMLDSDGSFFLYSKLTVDKSRWQQGNVFSCSVMHEALHAHYTQKSLSLSPGK
light: B3 light with E55L
